Results taken from patent US20150119475.

Target: Snail protein (SNAI1/Snail, expressed as GST fusion in E. coli, GST moiety cleaved with thrombin), O95863
Sequence (O95863 whole entry, the tested form may be a part): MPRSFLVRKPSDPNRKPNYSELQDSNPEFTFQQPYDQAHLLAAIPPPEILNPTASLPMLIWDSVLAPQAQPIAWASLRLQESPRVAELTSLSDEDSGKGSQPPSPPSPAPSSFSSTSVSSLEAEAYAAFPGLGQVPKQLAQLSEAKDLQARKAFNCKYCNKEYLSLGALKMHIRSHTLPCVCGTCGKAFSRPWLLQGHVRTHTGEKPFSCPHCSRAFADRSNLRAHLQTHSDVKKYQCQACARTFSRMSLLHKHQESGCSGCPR

B1: recombinant Akt1 (ProQinase GmbH) (protein)
chain: VADGLKKQEEEEMDFRSGSPSDNSGAEEMEVSLAKPKHRVTMNEFEYLKLLGKGTFGKVILVKEKATGRYYAMKILKKEVIVAKDEVAHTLTENRVLQNSRHPFLTALKYSFQTHDRLCFVMEYANGGELFFHLSRERVFSEDRARFYGAEIVSALDYLHSEKNVVYRDLKLENLMLDKDGHIKITDFGLCKEGIKDGATMKTFCGTPEYLAPEVLEDNDYGRAVDWWGLGVVMYEMMCGRLPFYNQDHEKLFELILMEEIRFPRTLGPEAKSLLSGLLKKDPKQRLGGGSEDAKEIMQHRFFAGIVWQHVYEKKLSPPFKPQVTSETDTRYFDEEFTAQMITITPPDQDDSMECVDSERRPHFPQFSYSASGTA
For B1, which “in vitro kinase assay with 32P-ATP, detected by autoradiography” value is on record?
The value was “Akt1 and Akt3 kinases are able to directly phosphorylate Snail protein”.
